Results on 6 molecules are retold here after patent US20200140512A1 (Xencor, published 2020).

Experiment [1] concerns the target T1, human PD-1-His (human, UniProt Q15116 25-167, limits assumed).
T1 construct: not shown: His tag
Kind of experiment: Octet (Example 7A, told again). (In general: Biolayer interferometry detects binding as a change in optical thickness at a sensor tip.)

Experiment [2] deals with T2, PD-1 (antigen of the Octet affinity measurements of Example 9 and of the affinities quoted afterwards) (UniProt Q15116 25-167, limits assumed).
T2 construct: most likely human PD-1-His
Kind of experiment: Octet affinity screen, bivalent IgG1 format.

Experiment [3] deals with T1, human PD-1-His. The experiment in a line: Octet, antibody captured on anti-human Fc (AHC) biosensors, dipped into multiple concentrations of PD-1-His.
Experiment [4] addresses T1, human PD-1-His. The experiment in a line: Octet, antibody on AHC biosensors, multiple concentrations of PD-1-His.

Residue numbers refer to the chain shown, from its start. Names may count otherwise.

T1 sequence (Q15116 25-167 limits assumed): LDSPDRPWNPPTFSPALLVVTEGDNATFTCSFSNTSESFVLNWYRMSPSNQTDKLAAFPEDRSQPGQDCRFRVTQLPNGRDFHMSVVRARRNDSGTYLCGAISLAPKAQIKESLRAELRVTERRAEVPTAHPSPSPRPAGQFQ
T2 sequence (Q15116 25-167 limits assumed): as above

B1: XENP28536 (bivalent mAb based on humanized mAb C, mAb C[PD-1]_H1L1) (antibody, human IgG1, V domains shown)
VH: EVQLVESGGGLVQPGGSLRLSCAASGFTFSSFGMHWVRQAPGKGLEWVSYISSGSSIIYYADSVKGRFTISRDNAKNSLYLQMNSLRAEDTAVYYCARGGRLVWSPDYWGQGTLVTVSS
VL: DIVMTQSPDSLAVSLGERATINCKSSQSLLNSGNQKNYLTWYQQKPGQPPKLLIYWASTRESGVPDRFTGSGSGTDFTLTISSLQAEDVAVYYCQNDYSYPFTFGSGTKLEIK
notes: also called WT
As to B1, in the experiment with human PD-1-His [1], the binding result is given as “binds”.

B2: mAb C[PD-1]_H1_L1.1 (bivalent IgG1 format with E233P/L234V/L235A/G236_/S267K ablation variants) (antibody, V domains shown)
VH: B1 VH
VL: DIVMTQSPDSLAVSLGERATINCKSSQSLLHSGNQKNYLTWYQQKPGQPPKLLIYWASTRESGVPDRFTGSGSGTDFTLTISSLQAEDVAVYYCQNDYSYPFTFGSGTKLEIKR
notes: Human IgG1 with ablation variants; copies: 2 + 2
For the molecule B2, the “fold improved affinity over WT” value in experiment [2] worked out at 2 fold.

B3: XENP28538 (humanized variant of anti-PD-1 mAb C, bivalent human IgG1) (antibody, V domains shown)
VH: B1 VH with Q13K, S49G, S63P, A75S, S78T, R87K, A88T
VL: B2 VL with H31N
notes: Human IgG1 with E233P/L234V/L235A/G236del/S267K
Regarding B3, the binding result with human PD-1-His [3] is listed as “no binding”.

B4: mab_C[PD-1]_H1_L1.3 (bivalent IgG1 format with E233P/L234V/L235A/G236_/S267K ablation variants) (antibody, V domains shown)
VH: B1 VH
VL: B2 VL with H31S
notes: as for B2
On to B4, for which the “fold improved affinity over WT” value in experiment [2] is over 2 fold.

B5: XENP28539 (humanized variant of anti-PD-1 mAb C, bivalent human IgG1) (antibody, V domains shown)
VH: B1 VH with Q13K, S49G, S63P, A75S, S78T, R87K, A88T
VL: DIVMTQSPLSLPVTPGEPASISCRSSQSLLNSGNQKNYLTWYLQKPGQPPQLLIYWASTRESGVPDRFTGSGSGTDFTLKISRVEAEDVGVYYCQNDYSYPFTFGSGTKLEIKR
notes: as for B3
Take B5: in the experiment with human PD-1-His [3], the binding result was “no binding”.

B6: XENP28519 (bivalent mAb based on humanized mAb A) (antibody, human IgG1, kappa, V domains shown)
VH: QVQLQESGPGLVKPSQTLSLTCTVSGHSITSDYAWNWIRQPPGKKLEWIGYISYSGYTTYNPSLKSRVTISRDTSKNQFSLKLSSVTAADTAVYFCARDLDYGPWFAYWGQGTLVTVSS
VL: DIQMTQSPSSLSASVGDRVTITCRASENIHNYLAWYQQKPGKSPKLLVYNVKTLADGVPSRFSGSGSGTDYTLTISSLQPEDFATYYCQHFWSSPWTFGGGTKVEIKR
notes: also called anti-PD-1 mAb XENP28519
As for B6, the binding result with human PD-1-His [4] is “binds”.
